Experiment [1] deals with T1, CHIKV Caribbean strain, Asian lineage (envelope protein E2 on virus) (Chikungunya virus). As to the kind of experiment: cell-based or functional assay.
Experiment [2] addresses T2, CHIKV La Reunion (LR) strain, ECSA lineage (envelope protein E2 on virus) (Chikungunya virus). As to the kind of experiment: cell-based or functional assay.
Experiment [3] deals with T3, CHIKV 37997 strain, West African lineage (envelope protein E2 on virus) (Chikungunya virus). Put plainly: cell-based or functional assay.
Experiment [4] addresses T4, Recombinant human HPC4-tagged FcγRIIIa-V158 (human, UniProt P08637 17-208).
T4 construct: Valine at 158 is a polymorphism, named without an old residue; also called Val158; not shown: HPC4 tag
Put plainly: SPR (Biacore 3000), HPC4-tagged FcγRIIIa-V158 captured on anti-HPC4 CM5 chip, antibody injected 2 min, in duplicate; concentration (900, 300 or 100 nM in the methods) not printed on the sheet.

Experiment [5] deals with T5, recombinant human FcRn (human, UniProt P55899 24-297; P61769 21-119).
T5 construct: also called human FcRn receptor
T5 sequence (P55899 24-297 limits assumed, chain 1 of 2): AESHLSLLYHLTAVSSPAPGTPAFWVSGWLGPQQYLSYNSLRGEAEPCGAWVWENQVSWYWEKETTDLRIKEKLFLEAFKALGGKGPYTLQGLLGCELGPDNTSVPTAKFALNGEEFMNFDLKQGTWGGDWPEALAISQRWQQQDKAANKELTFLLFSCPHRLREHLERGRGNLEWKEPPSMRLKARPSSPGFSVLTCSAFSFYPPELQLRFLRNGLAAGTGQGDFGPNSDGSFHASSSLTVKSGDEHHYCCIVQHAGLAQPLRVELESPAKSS
T5 sequence (P61769 21-119 limits assumed, chain 2 of 2): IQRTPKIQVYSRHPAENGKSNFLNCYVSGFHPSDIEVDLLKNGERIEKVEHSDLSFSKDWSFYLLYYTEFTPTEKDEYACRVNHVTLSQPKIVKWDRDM
Put plainly: SPR (Biacore T200), human FcRn immobilised on CM5 chip. On the technique in general: In SPR one partner is held on a chip, and binding of the other changes the refractive index at the surface.

In experiment [6] the target is T6, recombinant mouse FcRn (mouse, UniProt Q61559 22-297; P01887 21-119).
T6 sequence 1: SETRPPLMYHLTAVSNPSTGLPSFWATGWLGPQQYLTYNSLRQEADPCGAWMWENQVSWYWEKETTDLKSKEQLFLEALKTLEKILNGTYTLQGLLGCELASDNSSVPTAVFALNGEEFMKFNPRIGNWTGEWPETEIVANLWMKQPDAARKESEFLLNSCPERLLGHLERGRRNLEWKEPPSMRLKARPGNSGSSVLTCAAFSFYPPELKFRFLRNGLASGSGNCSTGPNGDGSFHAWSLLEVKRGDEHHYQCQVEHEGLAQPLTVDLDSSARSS
T6 sequence 2: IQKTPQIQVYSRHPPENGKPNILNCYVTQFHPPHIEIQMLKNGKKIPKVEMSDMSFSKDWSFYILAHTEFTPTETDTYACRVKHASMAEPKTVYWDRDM
Put plainly: SPR, mouse FcRn immobilised; relative to mAb1.

For experiment [7], the target named is T5, recombinant human FcRn. As to the kind of experiment: SPR, human FcRn immobilised; relative to mAb1.
In experiment [8] the target is T7, Recombinant human HPC4-tagged FcγRIII-F158 (human, UniProt P08637 17-208).
T7 construct: also called FcγRIIIaF158; not shown: HPC4 tag
T7 sequence (P08637 17-208): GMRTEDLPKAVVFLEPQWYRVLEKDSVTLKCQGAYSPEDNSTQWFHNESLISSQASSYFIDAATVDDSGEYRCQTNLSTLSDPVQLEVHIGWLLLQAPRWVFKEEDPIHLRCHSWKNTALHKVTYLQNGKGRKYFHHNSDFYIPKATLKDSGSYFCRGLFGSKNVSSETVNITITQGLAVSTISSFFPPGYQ
Put plainly: SPR (Biacore 3000), HPC4-tagged FcγRIII-F158 captured on anti-HPC4 CM5 chip, antibody injected 2 min, in duplicate; concentration (900, 300 or 100 nM in the methods) not printed on the sheet.

The target in the next experiment is Antigen (E2) (Chikungunya virus). As to the kind of experiment: SPR (Biacore T200), His-tagged antigen captured by anti-His antibody, 1:1 model.
Experiment [9] has as its target T6, recombinant mouse FcRn. As to the kind of experiment: SPR (Biacore T200), mouse FcRn immobilised on CM5 chip.
Experiment [10] concerns the target T1, CHIKV Caribbean strain, Asian lineage …. As to the kind of experiment: cell-based or functional assay. This is another data set of the same source.
Experiment [11] concerns the target T2, CHIKV La Reunion (LR) strain, ECSA …. As to the kind of experiment: cell-based or functional assay. This is another data set of the same source.
For experiment [12], the target named is T3, CHIKV 37997 strain, West African …. As to the kind of experiment: cell-based or functional assay. The source holds these as a separate data set.

T4 sequence (P08637 17-208 F176V): as the sequence (P08637 17-208) above, with F160V counted along it

B1: mAb1 (antibody)
heavy: not shown
light: QAVVTQPPSVSGAPGQRVTISCTGSSSNIGADYNVHWYQLLPGTAPKLLIYGNTNRPSGVPDRFSGSKSGTSASLAITGLQAEDEADYYCQSYDSSLSASVFGGGTKLTVLGQPKAAPSVTLFPPSSEELQANKATLVCLISDFYPGAVTVAWKADSSPVKAGVETTTPSKQSNNKYAASSYLSLTPEQWKSHRSYSCQVTHEGSTVEKTVAPTECS
notes: also called parent antibody mAb1
Consider B1, for which the “In vitro neutralization - EC50 (ng/ml), plaque reduction assay on Vero cells” value in experiment [1] was 7.6 ng/mL; in [2] it was 3.9 ng/mL; in experiment [3], 4.8 ng/mL. For the same molecule, the binding result in experiment [4] and in [8] was “binds” in each case. Further, the equilibrium dissociation constant (Kd) turned out to be 348 nM in the experiment with recombinant human FcRn [5], 0.13 nM in the experiment with Antigen (E2) and 20 nM with recombinant mouse FcRn [9]. Further, the “Affinity Increase (fold)” value in the experiment with recombinant mouse FcRn [6] and in the experiment with recombinant human FcRn [7] was 1 fold throughout. Also, the “EC50, plaque reduction neutralization” value in [10], in experiment [11] and in [12] was under 10 ng/mL in each case.

B2: mAb7 (antibody)
heavy: not shown
light: QAVVTQPPSVSGAPGQRVTISCTGSSSNIGADYNVHWYQLLPGTAPKLLIYGNTNRPSGVPDRFSGSKSGTSASLAITGLQAEDEADYYCQSYDSSLSASVFGGGTKLTVLGQPKAAPSVTLFPPSSEELQANKATLVCLISDFYPGAVTVAWKADSSPVKAGVETTTPSKQSNNKYAASSYLSLTPEQWKSHRSYSCQVTHEGSTVEKTVAPTECS
notes: also called mAb1LS
On to B2, for which the results for the “In vitro neutralization - EC50 (ng/ml), plaque reduction assay on Vero cells” value in [1], in experiment [2] and in [3] were 0.6 ng/mL, 0.3 ng/mL and 0.2 ng/mL, respectively. Also, the binding result in experiment [4] and in experiment [8] was “binds” each time. Further, the Kd with recombinant human FcRn [5] is 15 nM; in the experiment with Antigen (E2) it was 0.17 nM; in the experiment with recombinant mouse FcRn [9], 5.9 nM. For the same molecule, the “Affinity Increase (fold)” value came to 3.4 fold in the experiment with recombinant mouse FcRn [6] and 23.8 fold in the experiment with recombinant human FcRn [7]. The “EC50, plaque reduction neutralization” value in [10], in [11] and in [12] was under 1 ng/mL each time.

Usually Kd stands for the constant that tells how readily two partners part at equilibrium.

The record behind these values is US20180127487A1 (Sanofi, published 2018).
